Test results taken from publication PMC11077065.

How the values were obtained:
[1] = molecular target: PhiPA3 ChmC (Chimallin C, gp61), full-length (bacteriophage PhiPA3); experiment: SEC-MALS
[2] = molecular target: PhiPA3 ChmC-ΔC (residues 204-251 removed) (bacteriophage PhiPA3); experiment: SEC-MALS

Substance	stoichiometry N [1]	stoichiometry N [2]
PhiPA3 ChmC (Chimallin C, gp61), full-length (natural protein)	4	–
PhiPA3 ChmC-ΔC (residues 204-251 removed) (domain or fragment)	–	4
